Experimental findings from publication PMC3566775 are described below.

The target in this assay is Mouse SR-BI CGG mutant (positions 321-323) (mouse) (UniProt Q61009). The experiment in a line: radioligand binding.

“Human high density lipoprotein (HDL), labeled with 125I (complex)” had a reduction in binding compared to the WT receptor of 20%.
